Measurements reported in patent US6964763 (CORNELL RESEARCH FOUNDATION, dated 2005).

B1: RANTES (regulated on activation normal T expressed and secreted protein) (ligand, UniProt P13501 24-91, looked up)
chain: SPYSSDTTPCCFAYIARPLPRAHIKEYFYTSGKCSNPAVVFVTRKNRQVCANPEKKWVREYINSLEMS
B2: Purified human calcium-replete thrombospondin-1 (TSP1) from thrombin-activated platelets (ligand)
chain: not shown
notes: mature; also called purified platelet TSP1

Legend:
[1] = molecular target: B2; assay: solid phase binding, 125I-RANTES on immobilized TSP1; saturatable, biphasic
Description: (§1) Washed wells were blocked with 0.5% bovine serum albumin ("BSA"), then incubated in triplicate with soluble radiolabeled ligand for 2.5 hours at 37° C. After extensive washing in 50 mM Tris pH 7.5, 150 mM NaCl, 0.5% Tween-20 (TBS-Tween), bound radioactivity was quantified by gamma counter. […] Specific binding was determined as quenchable in the presence of excess unlabeled ligand, above background binding to BSA-coated wells.

[2] = molecular target: T1, CHO cell-expressed soluble recombinant CD4 (UniProt P01730 26-394); assay: solid phase binding, 125I-CD4 on immobilized TSP1
T1 construct: also called soluble CD4
Description: as §1

Row | Binder | EC50 [1] | binding result [2]
1 | B1 | ~330 nM | –
2 | B2 | – | binds
